For assay [1], the target named is T1, P9A-bS.
T1 chain: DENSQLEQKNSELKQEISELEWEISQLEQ
The experiment in a line: two-hybrid library CCNG1.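 Note: natural log of median RNA to DNA barcode read ratio; higher means stronger binding.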

In assay [2] the target is T2, P8A-bS.
T2 chain: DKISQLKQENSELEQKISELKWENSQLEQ
As to the kind of experiment: two-hybrid library CCNG1.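 Note: natural log of median RNA to DNA barcode read ratio; higher means stronger binding.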

Assay [3] deals with T3, P7A-bS.
T3 chain: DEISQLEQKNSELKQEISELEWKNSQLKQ
As to the kind of experiment: two-hybrid library CCNG1.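 Note: natural log of median RNA to DNA barcode read ratio; higher means stronger binding.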

The target of assay [4] is T4, 4H3446-AA.
T4 chain: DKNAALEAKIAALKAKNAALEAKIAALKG
As to the kind of experiment: two-hybrid library CCmax.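 Note: natural log of median RNA to DNA barcode read ratio; higher means stronger binding.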 The note with it: mean of both orientations.

Assay [5] addresses T5, 4H971-AA.
T5 chain: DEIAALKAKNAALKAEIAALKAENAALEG
The experiment in a line: two-hybrid library CCmax.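 Note: natural log of median RNA to DNA barcode read ratio; higher means stronger binding.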 The note with it: mean of both orientations.

The target in assay [6] is T6, 4H2991-AA.
T6 chain: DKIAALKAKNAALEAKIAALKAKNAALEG
As to the kind of experiment: two-hybrid library CCmax.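 Note: natural log of median RNA to DNA barcode read ratio; higher means stronger binding.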 As to conditions: mean of both orientations.

In assay [7] the target is T7, 4H189-AA.
T7 chain: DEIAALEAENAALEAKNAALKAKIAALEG
The experiment in a line: two-hybrid library CCmax. The note with it: mean of both orientations.

Assay [8] concerns the target T8, 4H3920-AA.
T8 chain: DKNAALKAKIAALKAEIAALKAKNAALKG
The experiment in a line: two-hybrid library CCmax. As to conditions: mean of both orientations.

Assay [9] addresses T9, 4H497-AA.
T9 chain: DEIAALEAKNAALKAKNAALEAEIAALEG
As to the kind of experiment: two-hybrid library CCmax. As to conditions: mean of both orientations.

Assay [10] addresses T10, 4H2283-AA.
T10 chain: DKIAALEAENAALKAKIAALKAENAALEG
The experiment in a line: two-hybrid library CCmax. As to conditions: mean of both orientations.

For assay [11], the target named is T11, 4H3628-AA.
T11 chain: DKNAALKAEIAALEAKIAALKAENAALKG
The experiment in a line: two-hybrid library CCmax. The note with it: mean of both orientations.

Assay [12] concerns the target T12, 4H3709-AA.
T12 chain: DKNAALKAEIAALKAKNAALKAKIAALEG
As to the kind of experiment: two-hybrid library CCmax. The note with it: mean of both orientations.

The target in assay [13] is T13, 4H3417-AA.
T13 chain: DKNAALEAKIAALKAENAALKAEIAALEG
The experiment in a line: two-hybrid library CCmax. As to conditions: mean of both orientations.

The target of assay [14] is T14, 4H675-AA.
T14 chain: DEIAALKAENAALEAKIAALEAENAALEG
The experiment in a line: two-hybrid library CCmax. As to conditions: mean of both orientations.

The target in assay [15] is T15, 4H3591-AA.
T15 chain: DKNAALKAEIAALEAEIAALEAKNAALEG
The experiment in a line: two-hybrid library CCmax. As to conditions: mean of both orientations.

The target of assay [16] is T16, 4H2713-AA.
T16 chain: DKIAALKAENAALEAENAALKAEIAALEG
As to the kind of experiment: two-hybrid library CCmax. As to conditions: mean of both orientations.

For assay [17], the target named is T17, 4H1854-AA.
T17 chain: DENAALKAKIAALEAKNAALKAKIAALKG
The experiment in a line: two-hybrid library CCmax.

Assay [18] concerns the target T18, 4H3029-AA.
T18 chain: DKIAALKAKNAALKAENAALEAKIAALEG
As to the kind of experiment: two-hybrid library CCmax. As to conditions: mean of both orientations.

Assay [19] addresses T19, 4H391-AA.
T19 chain: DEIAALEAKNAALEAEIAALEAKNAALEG
The experiment in a line: two-hybrid library CCmax. As to conditions: mean of both orientations.

The target in assay [20] is T20, 4H3066-AA.
T20 chain: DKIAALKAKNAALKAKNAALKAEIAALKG
As to the kind of experiment: two-hybrid library CCmax. As to conditions: mean of both orientations.

Assay [21] addresses T21, 4H656-AA.
T21 chain: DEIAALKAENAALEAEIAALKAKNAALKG
As to the kind of experiment: two-hybrid library CCmax. As to conditions: mean of both orientations.

Assay [22] addresses T22, 4H3666-AA.
T22 chain: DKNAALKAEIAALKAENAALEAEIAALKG
The experiment in a line: two-hybrid library CCmax. As to conditions: mean of both orientations.

Assay [23] addresses T23, 4H3102-AA.
T23 chain: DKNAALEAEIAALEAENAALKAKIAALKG
As to the kind of experiment: two-hybrid library CCmax. The note with it: mean of both orientations.

Assay [24] deals with T24, 4H3939-AA.
T24 chain: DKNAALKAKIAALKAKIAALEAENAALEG
As to the kind of experiment: two-hybrid library CCmax. As to conditions: mean of both orientations.

Assay [25] concerns the target T25, 4H3121-AA.
T25 chain: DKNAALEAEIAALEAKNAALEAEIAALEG
The experiment in a line: two-hybrid library CCmax. The note with it: mean of both orientations.

The target in assay [26] is T26, 4H428-AA.
T26 chain: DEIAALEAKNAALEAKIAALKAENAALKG
The experiment in a line: two-hybrid library CCmax. As to conditions: mean of both orientations.

Assay [27] concerns the target T27, 4H2248-AA.
T27 chain: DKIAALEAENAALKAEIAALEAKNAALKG
The experiment in a line: two-hybrid library CCmax. The note with it: mean of both orientations.

The target of assay [28] is T28, 4H2948-AA.
T28 chain: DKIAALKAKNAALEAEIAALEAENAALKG
The experiment in a line: two-hybrid library CCmax. The note with it: mean of both orientations.

For assay [29], the target named is T29, 4H2742-AA.
T29 chain: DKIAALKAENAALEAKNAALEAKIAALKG
As to the kind of experiment: two-hybrid library CCmax. The note with it: mean of both orientations.

The target in assay [30] is T30, 4H478-AA.
T30 chain: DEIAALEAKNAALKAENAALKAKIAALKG
As to the kind of experiment: two-hybrid library CCmax. As to conditions: mean of both orientations.

Assay [31] deals with T31, O5.
T31 chain: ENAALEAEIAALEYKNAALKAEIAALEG
As to the kind of experiment: two-hybrid library CC0. The note with it: mean of both orientations.

Assay [32] addresses T32, O4.
T32 chain: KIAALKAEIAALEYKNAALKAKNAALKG
As to the kind of experiment: two-hybrid library CC0. The note with it: mean of both orientations.

Assay [33] concerns the target T33, O6.
T33 chain: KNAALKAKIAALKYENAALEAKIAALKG
The experiment in a line: two-hybrid library CC0. The note with it: mean of both orientations.

Assay [34] deals with T34, O9.
T34 chain: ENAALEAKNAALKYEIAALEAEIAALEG
The experiment in a line: two-hybrid library CC0. The note with it: mean of both orientations.

For assay [35], the target named is T35, O8.
T35 chain: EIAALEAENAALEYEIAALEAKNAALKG
As to the kind of experiment: two-hybrid library CC0. The note with it: mean of both orientations.

For assay [36], the target named is T36, O3.
T36 chain: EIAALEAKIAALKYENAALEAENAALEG
As to the kind of experiment: two-hybrid library CC0. As to conditions: mean of both orientations.

The target in assay [37] is T37, O7.
T37 chain: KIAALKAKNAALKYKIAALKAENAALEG
As to the kind of experiment: two-hybrid library CC0. The note with it: mean of both orientations.

In assay [38] the target is T38, P8A-bN.
T38 chain: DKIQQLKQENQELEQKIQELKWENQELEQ
The experiment in a line: two-hybrid library CCNG1.

The target of assay [39] is T39, P9A-bN.
T39 chain: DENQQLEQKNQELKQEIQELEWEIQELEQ
The experiment in a line: two-hybrid library CCNG1.

On to DEISQLEQKNSELKQEISELEWKNSQLKQ [P7A-bS], for which the results for the interaction score in assay [1], in [2] and in assay [3] were -0.768, 0.493 and -1.32, respectively.
Consider DENAALKAKIAALEAKNAALKAKIAALKG [4H1854-AA], for which the interaction score was -1 in [4]; -2.3 in [5]; -1.61 in [6]; -1.76 in assay [7]; -1.51 in [8]; -1.88 in [9]. Moreover, the interaction score was -0.597 in [10]; -1.22 in [11]; -0.898 in assay [12]; 1.7 in [13]; 0.675 in [14]; -0.937 in assay [15]. Moreover, the interaction score in assay [16] was -0.843; in assay [17], 0.401; in [18], -0.674; in assay [19], 0.189; in assay [20], -1.5; in [21] it was 0.553. The interaction score in assay [22] was 1.68; in [23], 0.389; in [24] it was -1.28; in [25], 1.28; in assay [26], -0.746; in assay [27], 1.14. Also, the interaction score in [28] is -0.756; in [29], -1.53; in [30] it was -1.16.
For EIAALEAKIAALKYENAALEAENAALEG [O3], the interaction score was -2.78 in assay [31]; 1.48 in assay [32]; -2.66 in assay [33]; -2.71 in [34]; -2.58 in [35]; -2.75 in [36]. The interaction score in assay [37] was -2.77.
For the molecule DKIQQLKQENQELEQKIQELKWENQELEQ [P8A-bN], the values for the interaction score in assay [38] and in assay [39] were -1.84 and -1.47, respectively.

The values are drawn from paper PMC10397247.
